Substitutions are numbered along the chain they refer to. Read-outs that look alike come from different tables or passages of the source. Blank lines part the entries; values can stand above or below the binder they belong to.
Columns and labels:
[1] = molecular target: T1, recombinant human Pds5B_(1–1120) (human, UniProt Q9NTI5 1-1120); assay: pull-down
T1 sequence (looked up): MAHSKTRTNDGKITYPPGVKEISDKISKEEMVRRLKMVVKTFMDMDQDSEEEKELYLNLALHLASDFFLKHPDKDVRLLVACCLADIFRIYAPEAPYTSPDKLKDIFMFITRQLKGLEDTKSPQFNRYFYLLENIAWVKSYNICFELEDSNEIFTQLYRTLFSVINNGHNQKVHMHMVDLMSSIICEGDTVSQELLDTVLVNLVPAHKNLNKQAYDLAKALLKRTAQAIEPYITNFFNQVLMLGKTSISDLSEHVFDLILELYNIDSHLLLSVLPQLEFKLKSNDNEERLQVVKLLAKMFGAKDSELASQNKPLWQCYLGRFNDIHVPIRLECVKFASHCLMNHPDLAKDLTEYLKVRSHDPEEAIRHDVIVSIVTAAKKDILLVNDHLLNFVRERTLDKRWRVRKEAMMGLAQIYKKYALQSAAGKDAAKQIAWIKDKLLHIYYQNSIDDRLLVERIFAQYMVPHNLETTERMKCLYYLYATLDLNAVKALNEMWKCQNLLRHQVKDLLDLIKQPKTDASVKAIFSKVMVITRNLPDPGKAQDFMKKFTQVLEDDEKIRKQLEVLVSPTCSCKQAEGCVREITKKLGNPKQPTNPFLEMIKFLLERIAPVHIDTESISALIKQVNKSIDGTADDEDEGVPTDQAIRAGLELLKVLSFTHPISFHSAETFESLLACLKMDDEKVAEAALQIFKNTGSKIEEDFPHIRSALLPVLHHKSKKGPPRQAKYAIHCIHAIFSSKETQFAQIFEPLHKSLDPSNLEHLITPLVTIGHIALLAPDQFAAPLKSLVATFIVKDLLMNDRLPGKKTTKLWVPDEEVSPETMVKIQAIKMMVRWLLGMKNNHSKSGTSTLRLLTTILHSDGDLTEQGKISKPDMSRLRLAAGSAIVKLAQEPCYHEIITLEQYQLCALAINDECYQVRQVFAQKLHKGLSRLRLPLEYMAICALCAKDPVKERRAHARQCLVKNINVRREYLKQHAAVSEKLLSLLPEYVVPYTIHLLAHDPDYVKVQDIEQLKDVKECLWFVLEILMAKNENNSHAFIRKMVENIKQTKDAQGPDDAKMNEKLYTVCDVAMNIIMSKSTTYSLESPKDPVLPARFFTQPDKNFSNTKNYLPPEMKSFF

[2] = molecular target: T1, recombinant human Pds5B_(1–1120); assay: pull-down; remark: listed apart in the source
[3] = molecular target: T2, selenomethionine-containing Pds5B_(21–1120) (human, UniProt Q9NTI5 21-1120, selenomethionine-containing); assay: crystal structure
T2 sequence (looked up): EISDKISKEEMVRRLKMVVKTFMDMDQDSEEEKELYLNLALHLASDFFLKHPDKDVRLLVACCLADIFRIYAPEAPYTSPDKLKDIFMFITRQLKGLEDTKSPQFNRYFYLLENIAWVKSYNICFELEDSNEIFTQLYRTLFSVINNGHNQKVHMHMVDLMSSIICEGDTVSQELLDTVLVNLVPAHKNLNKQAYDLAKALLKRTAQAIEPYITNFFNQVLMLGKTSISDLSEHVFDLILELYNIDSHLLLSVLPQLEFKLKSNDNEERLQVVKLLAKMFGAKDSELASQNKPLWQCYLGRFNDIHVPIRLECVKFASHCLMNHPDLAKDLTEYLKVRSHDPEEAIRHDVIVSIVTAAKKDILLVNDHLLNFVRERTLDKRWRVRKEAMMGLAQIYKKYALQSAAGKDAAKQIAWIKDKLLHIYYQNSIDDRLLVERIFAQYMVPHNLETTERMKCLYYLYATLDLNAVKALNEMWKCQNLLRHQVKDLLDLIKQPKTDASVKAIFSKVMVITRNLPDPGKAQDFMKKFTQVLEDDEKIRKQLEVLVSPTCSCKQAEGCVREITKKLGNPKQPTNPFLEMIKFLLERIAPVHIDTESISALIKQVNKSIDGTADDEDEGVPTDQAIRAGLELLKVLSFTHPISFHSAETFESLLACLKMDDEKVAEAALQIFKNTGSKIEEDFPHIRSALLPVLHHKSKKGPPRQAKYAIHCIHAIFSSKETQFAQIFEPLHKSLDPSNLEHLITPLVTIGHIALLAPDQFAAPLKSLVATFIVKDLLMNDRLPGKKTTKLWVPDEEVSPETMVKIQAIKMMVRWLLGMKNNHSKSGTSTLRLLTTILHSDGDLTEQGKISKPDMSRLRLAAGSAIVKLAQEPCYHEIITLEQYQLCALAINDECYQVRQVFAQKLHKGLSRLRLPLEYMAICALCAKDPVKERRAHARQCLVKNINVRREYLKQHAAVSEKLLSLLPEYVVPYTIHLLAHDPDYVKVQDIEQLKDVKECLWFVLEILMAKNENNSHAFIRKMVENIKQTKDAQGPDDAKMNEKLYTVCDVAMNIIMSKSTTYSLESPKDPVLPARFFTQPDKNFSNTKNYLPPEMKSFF

[4] = molecular target: T3, recombinant human Pds5B_(21–1120) (human, UniProt Q9NTI5 21-1120); assay: ITC
T3 sequence (looked up): T2 sequence (looked up)

[5] = molecular target: T4, recombinant human Pds5B_(21–1120) Y445A/N447A (human, UniProt Q9NTI5 21-1120, Y445A | N447A); assay: pull-down
T4 sequence (looked up): T2 sequence (looked up) with Y425A, N427A

Binder: DARDLEMSKKVRRSYSRLETLGSASTSTPGRRSCFGFEGL (peptide, UniProt Q96FF9 132-171, looked up) [synthetic Sororin peptide (residues 132–171)]
binding result [1]: binds

Binder: MTSRFGKTYSRKGGNGSSKFDEVFSNKRTTLST (peptide, UniProt Q7Z5K2 1-33, looked up) [synthetic Wapl_(1–33) peptide]
binding result [3]: binds

B1: recombinant purified Scc1_(76–150) (domain or fragment, human, UniProt O60216 76-150, looked up)
chain: ADCNEAFIKIKMAFRPGVVDLPEENREAAYNAITLPEEFHDFDQPLPDLDDIDVAQQFSLNQSRVEEITMREEVG
Kd [4]: 4.3 nM

More lines, now with the values ahead:

binding result [2]: binds
Binder: LDARDLEMSKKVRRSYSRLETLGSASTSTPGRRSCFGFEGL (domain or fragment, human, UniProt Q96FF9 131-171, looked up) [Sororin residues 131–171]

binding result [5]: binds
B2: GST-Scc1_(76–150) (domain or fragment, human, UniProt O60216 76-150, looked up)
chain: B1 chain

— publication PMC5560056 (Molecular cell, 2016)
